Assay results taken from patent publication US20160281093, “METHODS AND COMPOSITIONS FOR INTERFERENCE WITH DNA POLYMERASE AND DNA SYNTHESIS” (GEORGIA STATE UNIVERSITY RESEARCH FOUNDATION, INC., published 2016).

Target: E. coli DNA polymerase I (Escherichia coli, UniProt P00582 P00582:1-928)
Experiment: EMSA; Kd stated as determined from binding curves but value not given; RNA 50 nM, pol 0-80 nM, 10 mM KCl, 1 mM DTT, 5% glycerol, pH 7.0
Conditions: tags: New England Biolabs; label: body-labeled 32P
Method: A mixture (5 μL) containing bodily ³²P-labeled RNA 69-mer (50 nM, final), DNA polymerase I (0, 20, 40, 60, or 80 nM), and binding buffer (final: 10 mM KCl, 1 mM DTT, 5% glycerol, pH 7.0) was incubated at room temperature for 30 minutes and then placed at 4° C. overnight. The binding solutions were mixed with the gel loading dye (final: 10 mM KCl, 1 mM DTT, 5% glycerol, 0.001% xylene blue w/v) and then loaded on 10% non-denaturing polyacrylamide gel in the running buffer (5 mM Tris-HCl, 10 mM EDTA, and pH 7.5). The gel was pre-run for 1 hour at 250 volts. After loading the samples, the gel was run with a constant voltage (250 volts) for one hour; all operations were performed in 4° C. cold room. The gel was fixed with 7% acetic acid (in methanol), dried, and scanned. The radioactive bands were quantified by phosphorimager using image quantifying software. […] Dissociation constant was determined from the binding curves.
A mixture (5 μL) containing bodily ³²P-labeled RNA 69-mer (50 nM, final), DNA polymerase I (0, 20, 40, 60, or 80 nM), and binding buffer (final: 10 mM KCl, 1 mM DTT, 5% glycerol, pH 7.0) was incubated at room temperature for 30 minutes and then placed at 4° C. overnight. […] The radioactive bands were quantified by phosphorimager using image quantifying software. […] Dissociation constant was determined from the binding curves.

Chain of E. coli DNA polymerase I (P00582 whole entry, one chain of several): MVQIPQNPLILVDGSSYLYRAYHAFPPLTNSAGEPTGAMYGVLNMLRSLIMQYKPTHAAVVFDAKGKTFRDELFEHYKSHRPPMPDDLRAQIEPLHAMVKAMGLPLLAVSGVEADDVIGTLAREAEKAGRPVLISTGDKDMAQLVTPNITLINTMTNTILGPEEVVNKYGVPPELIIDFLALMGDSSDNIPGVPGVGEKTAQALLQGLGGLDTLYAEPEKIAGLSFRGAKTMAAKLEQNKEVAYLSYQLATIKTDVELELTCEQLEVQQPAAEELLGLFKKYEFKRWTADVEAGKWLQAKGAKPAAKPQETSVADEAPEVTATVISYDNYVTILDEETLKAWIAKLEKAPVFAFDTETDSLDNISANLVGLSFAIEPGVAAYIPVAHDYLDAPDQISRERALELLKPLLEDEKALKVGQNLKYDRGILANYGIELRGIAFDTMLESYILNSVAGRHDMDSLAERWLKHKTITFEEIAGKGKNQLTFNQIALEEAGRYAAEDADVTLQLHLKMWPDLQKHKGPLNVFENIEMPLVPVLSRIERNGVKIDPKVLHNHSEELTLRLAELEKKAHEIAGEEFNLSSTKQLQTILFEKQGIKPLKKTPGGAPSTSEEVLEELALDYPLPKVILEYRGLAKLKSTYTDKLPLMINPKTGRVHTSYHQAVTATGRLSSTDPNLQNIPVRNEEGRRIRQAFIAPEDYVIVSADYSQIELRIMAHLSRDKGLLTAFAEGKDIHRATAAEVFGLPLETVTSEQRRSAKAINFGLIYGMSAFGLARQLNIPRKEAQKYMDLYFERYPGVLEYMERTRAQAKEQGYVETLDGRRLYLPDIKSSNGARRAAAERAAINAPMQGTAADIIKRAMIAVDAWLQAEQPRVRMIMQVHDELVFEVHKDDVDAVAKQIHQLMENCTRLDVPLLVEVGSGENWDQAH

B1: RNA-69mer (ssRNA)
RNA: GGGAGCCCUGUCACCGGAUGUGCUUUCCGGUCUGAUGAGUCCGUGAGGACAAAACAGGGCUCCCGAAUU
binding result: binds
